Results on four molecules are retold here after patent publication US20230340128A1 (Xencor, published 2023).

Test [1] deals with T1, human mesothelin (MSLN) (human, UniProt Q13421 296-580, limits assumed).
T1 construct: Antigen of the Octet KD values
The test is described as follows: BLI (Octet), bsAb in 1+1 Fab-scFv-Fc format. In general terms: BLI is a label-free optical method that tracks binding on a fibre tip over time.

The target in test [2] is T2, MSLN on OVCAR8 cells (~90K MSLN antigens/cell) (UniProt Q13421 296-598). The test is described as follows: binding to OVCAR8 cells, MFI APC against mAb concentration.
The target in test [3] is T1, human mesothelin (MSLN). The test is described as follows: BLI (Octet), multiple concentrations, bsAb in 1+1 Fab-scFv-Fc format; lower table, column 'human MSLN (M)'.
Test [4] addresses T1, human mesothelin (MSLN). Put plainly: KD quoted in the FIG. 25 legend; Octet (BLI) per FIGS. 20-21.
The target in test [5] is T2, MSLN on OVCAR8 cells (~90K MSLN …). The test is described as follows: binding to OVCAR8 cells, MFI APC against mAb concentration. The source holds these as a separate data set.
The target is the same in test [6]. The description is as above. The source holds these as a separate data set.

Where two headings read alike, the source gives them in different places.

B1: XENP32561 (bispecific antibody)
chain 1: QVQLVQSGAEVKKPGASVKVSCKASGYTFTSYWMHWVRQAPGQGLEWMGMIHPNSDNTIYYEKFQGRVTMTVDKSISTAYMELSRLRSDDTAVYYCAIIITPVVPKFDYWGQGTLVTVSSASTKGPSVFPLAPSSKSTSGGTAALGCLVKDYFPEPVTVSWNSGALTSGVHTFPAVLQSSGLYSLSSVVTVPSSSLGTQTYICNVNHKPSDTKVDKKVEPKSCDKTHTCPPCPAPPVAGPSVFLFPPKPKDTLMISRTPEVTCVVVDVKHEDPEVKFNWYVDGVEVHNAKTKPREEEYNSTYRVVSVLTVLHQDWLNGKEYKCKVSNKALPAPIEKTISKAKGQPREPQVYTLPPSREEMTKNQVSLTCDVSGFYPSDIAVEWESDGQPENNYKTTPPVLDSDGSFFLYSKLTVDKSRWEQGDVFSCSVMHEALHNHYTQKSLSLSPGK
chain 2: not shown
chain 3: DIVMTQSPDSLAVSLGERATINCKASHSVGTSVAWYQQKPGQSPKLLIYWASTRHTGVPDRFTGSGSGTDFTLTISSLQAEDVAVYFCQQYSSYPLTFGAGTKLEIKRTVAAPSVFIFPPSDEQLKSGTASVVCLLNNFYPREAKVQWKVDNALQSGNSQESVTEQDSKDSTYSLSSTLTLSKADYEKHKVYACEVTHQGLSSPVTKSFNRGEC
The term Kd denotes the equilibrium constant for the complex coming apart. Lower therefore signals tighter binding. In general, koff refers to a measure of how fast the partners let go of each other. Higher therefore signals a short-lived complex. Usually kon stands for a measure of how fast the partners come together. By EC50 (read off the curve) is commonly meant the concentration that produces a half-maximal response. For the molecule B1, in the test with human mesothelin (MSLN) [1], the Kd is 0.355 nM, the Response stood at 1.08, the koff turned out to be 0.000215 s⁻¹ and the kon was 606000 M⁻¹ s⁻¹. In addition, the “EC50 (read off the curve)” value in test [2] was roughly 0.2 µg/mL. This molecule yielded a Kd with human mesothelin (MSLN) [3] of 0.45 nM.

B2: XENP32748 (bispecific antibody)
chain 1: QVQLVQSGAEVKKPGASVKVSCKASGYTFTSYWMHWVRQAPGQGLEWMGMIHPNSDNTIYYEKFQGRVTMTVDKSISTAYMELSRLRSDDTAVYYCAIIITPVVPKFDYWGQGTLVTVSSASTKGPSVFPLAPSSKSTSGGTAALGCLVKDYFPEPVTVSWNSGALTSGVHTFPAVLQSSGLYSLSSVVTVPSSSLGTQTYICNVNHKPSDTKVDKKVEPKSCDKTHTCPPCPAPPVAGPSVFLFPPKPKDTLMISRTPEVTCVVVDVKHEDPEVKFNWYVDGVEVHNAKTKPREEEYNSTYRVVSVLTVLHQDWLNGKEYKCKVSNKALPAPIEKTISKAKGQPREPQVYTLPPSREEMTKNQVSLTCDVSGFYPSDIAVEWESDGQPENNYKTTPPVLDSDGSFFLYSKLTVDKSRWEQGDVFSCSVMHEALHNHYTQKSLSLSPGK
chain 2: QVQLVQSGAEVKKPGASVKVSCKASGYTFTSYWMHWVRQAPGQGLEWMGMIHPNSDNTIYYEKFQGRVTMTVDKSISTAYMELSRLRSDDTAVYYCAIIITPVVPKFDYWGQGTLVTVSSASTKGPSVFPLAPSSKSTSGGTAALGCLVKDYFPEPVTVSWNSGALTSGVHTFPAVLQSSGLYSLSSVVTVPSSSLGTQTYICNVNHKPSNTKVDKKVEPKSCGGGGSGGGGSQAVVTQEPSLTVSPGGTVTLTCGSSTGAVTTSNYANWVQQKPGKSPRGLIGGTNKRAPGVPARFSGSLLGGKAALTISGAQPEDEADYYCALWYSNHWVFGGGTKLTVLGKPGSGKPGSGKPGSGKPGSEVQLVESGGGLVQPGGSLRLSCAASGFTFSTYAMNWVRQAPGKGLEWVGRIRSKANNYATYYADSVKGRFTISRDDSKNTLYLQMNSLRAEDTAVYYCVRHGNFGDSYVSWFAYWGQGTLVTVSSGGGGSGGGGSKTHTCPPCPAPPVAGPSVFLFPPKPKDTLMISRTPEVTCVVVDVKHEDPEVKFNWYVDGVEVHNAKTKPREEQYNSTYRVVSVLTVLHQDWLNGKEYKCKVSNKALPAPIEKTISKAKGQPREPQVYTLPPSREQMTKNQVKLTCLVKGFYPSDIAVEWESNGQPENNYKTTPPVLDSDGSFFLYSKLTVDKSRWQQGNVFSCSVMHEALHNHYTQKSLSLSPGK
chain 3: DIVMTQSPDSLAVSLGERATINCKASHDVLTSVAWYQQKPGQSPKLLIYWASTRHTGVPDRFTGSGSGTDFTLTISSLQAEDVAVYFCQQYSSYPLTFGAGTKLEIKRTVAAPSVFIFPPSDEQLKSGTASVVCLLNNFYPREAKVQWKVDNALQSGNSQESVTEQDSKDSTYSLSSTLTLSKADYEKHKVYACEVTHQGLSSPVTKSFNRGEC
The molecule B2 yielded a Kd with human mesothelin (MSLN) [4] of 0.74 nM. For the same molecule, the “EC50 (read off the curve)” value in test [5] is roughly 0.04 µg/mL.

B3: XENP32562 (bispecific antibody)
chain 1: QVQLVQSGAEVKKPGASVKVSCKASGYTFTSYWMHWVRQAPGQGLEWMGMIHPNSDNTIYYEKFQGRVTMTVDKSISTAYMELSRLRSDDTAVYYCAIIITPVVPKFDYWGQGTLVTVSSASTKGPSVFPLAPSSKSTSGGTAALGCLVKDYFPEPVTVSWNSGALTSGVHTFPAVLQSSGLYSLSSVVTVPSSSLGTQTYICNVNHKPSDTKVDKKVEPKSCDKTHTCPPCPAPPVAGPSVFLFPPKPKDTLMISRTPEVTCVVVDVKHEDPEVKFNWYVDGVEVHNAKTKPREEEYNSTYRVVSVLTVLHQDWLNGKEYKCKVSNKALPAPIEKTISKAKGQPREPQVYTLPPSREEMTKNQVSLTCDVSGFYPSDIAVEWESDGQPENNYKTTPPVLDSDGSFFLYSKLTVDKSRWEQGDVFSCSVMHEALHNHYTQKSLSLSPGK
chain 2: not shown
chain 3: DIVMTQSPDSLAVSLGERATINCKASHDVLTSVAWYQQKPGQSPKLLIYWASTRHTGVPDRFTGSGSGTDFTLTISSLQAEDVAVYFCQQYSSYPLTFGAGTKLEIKRTVAAPSVFIFPPSDEQLKSGTASVVCLLNNFYPREAKVQWKVDNALQSGNSQESVTEQDSKDSTYSLSSTLTLSKADYEKHKVYACEVTHQGLSSPVTKSFNRGEC
In the test with human mesothelin (MSLN) [1], B3 gave an equilibrium dissociation constant (Kd) of 0.628 nM, a Response of 1.01, an off-rate constant (koff) of 0.000409 s⁻¹ and a kon of 651000 M⁻¹ s⁻¹. Besides, the “EC50 (read off the curve)” value in test [5] was roughly 0.2 µg/mL. In addition, in the test with human mesothelin (MSLN) [3], the Kd amounted to 0.74 nM.

B4: XENP32852 (bispecific antibody)
chain 1: QVQLVQSGAEVKKPGASVKVSCKASGYTFTSYWMHWVRQAPGQGLEWMGMIHPNSDNTIYYEKFQGRVTMTVDKSISTAYMELSRLRSDDTAVYYCAIIITPVVPKFDYWGQGTLVTVSSASTKGPSVFPLAPSSKSTSGGTAALGCLVKDYFPEPVTVSWNSGALTSGVHTFPAVLQSSGLYSLSSVVTVPSSSLGTQTYICNVNHKPSDTKVDKKVEPKSCDKTHTCPPCPAPPVAGPSVFLFPPKPKDTLMISRTPEVTCVVVDVKHEDPEVKFNWYVDGVEVHNAKTKPREEEYNSTYRVVSVLTVLHQDWLNGKEYKCKVSNKALPAPIEKTISKAKGQPREPQVYTLPPSREEMTKNQVSLTCDVSGFYPSDIAVEWESDGQPENNYKTTPPVLDSDGSFFLYSKLTVDKSRWEQGDVFSCSVMHEALHNHYTQKSLSLSPGK
chain 2: QVQLVQSGAEVKKPGASVKVSCKASGYTFTSYWMHWVRQAPGQGLEWMGMIHPNSDNTIYYEKFQGRVTMTVDKSISTAYMELSRLRSDDTAVYYCAIIITPVVPKFDYWGQGTLVTVSSASTKGPSVFPLAPSSKSTSGGTAALGCLVKDYFPEPVTVSWNSGALTSGVHTFPAVLQSSGLYSLSSVVTVPSSSLGTQTYICNVNHKPSNTKVDKKVEPKSCGGGGSGGGGSQAVVTQEPSLTVSPGGTVTLTCGSSTGAVTTSNYANWVQQKPGKSPRGLIGGTNKRAPGVPARFSGSLLGGKAALTISGAQPEDEADYYCALWYSNHWVFGGGTKLTVLGKPGSGKPGSGKPGSGKPGSEVQLVESGGGLVQPGGSLRLSCAASGFTFSTYAMNWVRQAPGKGLEWVGRIRSKANNYATYYADSVKGRFTISRDDSKNTLYLQMNSLRAEDTAVYYCVRHGNFGDSYVSWFAYWGQGTLVTVSSGGGGSGGGGSKTHTCPPCPAPPVAGPSVFLFPPKPKDTLMISRTPEVTCVVVDVKHEDPEVKFNWYVDGVEVHNAKTKPREEQYNSTYRVVSVLTVLHQDWLNGKEYKCKVSNKALPAPIEKTISKAKGQPREPQVYTLPPSREQMTKNQVKLTCLVKGFYPSDIAVEWESNGQPENNYKTTPPVLDSDGSFFLYSKLTVDKSRWQQGNVFSCSVMHEALHNHYTQKSLSLSPGK
chain 3: DIVMTQSPDSLAVSLGERATINCKASHDVGTSVAWYQQKPGQSPKLLIYWASTRHTGVPDRFTGSGSGTDFTLTISSLQAEDVAVYFCQQYYSYPLTFGAGTKLEIKRTVAAPSVFIFPPSDEQLKSGTASVVCLLNNFYPREAKVQWKVDNALQSGNSQESVTEQDSKDSTYSLSSTLTLSKADYEKHKVYACEVTHQGLSSPVTKSFNRGEC
In the test with human mesothelin (MSLN) [4], B4 came in with a Kd of 3.9 nM. The “EC50 (read off the curve)” value in test [6] is roughly 0.06 µg/mL.
